Measurements as given in patent US9296811B2, “Methods for treating a tumor using an antibody that specifically binds HMW-MAA” (University of Pittsburgh—Of the Commonwealth System of …, priority 2010, dated 2016).
“Also recorded” adds a separate entry of the source.

Columns and labels:
V600E mutated BRAF = V600E mutated BRAF (Homo sapiens, UniProt P15056, V600E); conditions: cited from earlier work
[1] = test system: melanoma cell lines (Colo38, M21, SK-MEL-37, MV3, 1520); assay: MTT cell growth assay, vemurafenib and C21; format: cell-based, human
[2] = test system: normal human organ tissues; assay: IHC staining of normal human organ tissue microarray with C21 (cross-reactivity); format: binding; conditions: for IHC Result: normal human tissue, C21 4 μg/mL
CSPG4 = target: T1, CSPG4 (Homo sapiens, UniProt Q6UVK1); assay: FACS reactivity of C21 with established and patient-derived melanoma cell lines; format: binding; conditions: established or patient-derived lines containing BRAF^V600E or BRAF^WT
T1 construct: Representative FACS analysis of CSPG4 expression by melanoma cell lines using CSPG4-specific C21 and PE-conjugated anti-human IgG; endogenous in cells; host or cells: established (1520, 836, Colo38, M21, MEL526, MV3, SK-MEL-28, SK-MEL-37, WM1158) and patient-derived (Mel-JR, Mel-KD, pre/post vemurafenib) human melanoma cell lines
T1 sequence (Q6UVK1 30-2322): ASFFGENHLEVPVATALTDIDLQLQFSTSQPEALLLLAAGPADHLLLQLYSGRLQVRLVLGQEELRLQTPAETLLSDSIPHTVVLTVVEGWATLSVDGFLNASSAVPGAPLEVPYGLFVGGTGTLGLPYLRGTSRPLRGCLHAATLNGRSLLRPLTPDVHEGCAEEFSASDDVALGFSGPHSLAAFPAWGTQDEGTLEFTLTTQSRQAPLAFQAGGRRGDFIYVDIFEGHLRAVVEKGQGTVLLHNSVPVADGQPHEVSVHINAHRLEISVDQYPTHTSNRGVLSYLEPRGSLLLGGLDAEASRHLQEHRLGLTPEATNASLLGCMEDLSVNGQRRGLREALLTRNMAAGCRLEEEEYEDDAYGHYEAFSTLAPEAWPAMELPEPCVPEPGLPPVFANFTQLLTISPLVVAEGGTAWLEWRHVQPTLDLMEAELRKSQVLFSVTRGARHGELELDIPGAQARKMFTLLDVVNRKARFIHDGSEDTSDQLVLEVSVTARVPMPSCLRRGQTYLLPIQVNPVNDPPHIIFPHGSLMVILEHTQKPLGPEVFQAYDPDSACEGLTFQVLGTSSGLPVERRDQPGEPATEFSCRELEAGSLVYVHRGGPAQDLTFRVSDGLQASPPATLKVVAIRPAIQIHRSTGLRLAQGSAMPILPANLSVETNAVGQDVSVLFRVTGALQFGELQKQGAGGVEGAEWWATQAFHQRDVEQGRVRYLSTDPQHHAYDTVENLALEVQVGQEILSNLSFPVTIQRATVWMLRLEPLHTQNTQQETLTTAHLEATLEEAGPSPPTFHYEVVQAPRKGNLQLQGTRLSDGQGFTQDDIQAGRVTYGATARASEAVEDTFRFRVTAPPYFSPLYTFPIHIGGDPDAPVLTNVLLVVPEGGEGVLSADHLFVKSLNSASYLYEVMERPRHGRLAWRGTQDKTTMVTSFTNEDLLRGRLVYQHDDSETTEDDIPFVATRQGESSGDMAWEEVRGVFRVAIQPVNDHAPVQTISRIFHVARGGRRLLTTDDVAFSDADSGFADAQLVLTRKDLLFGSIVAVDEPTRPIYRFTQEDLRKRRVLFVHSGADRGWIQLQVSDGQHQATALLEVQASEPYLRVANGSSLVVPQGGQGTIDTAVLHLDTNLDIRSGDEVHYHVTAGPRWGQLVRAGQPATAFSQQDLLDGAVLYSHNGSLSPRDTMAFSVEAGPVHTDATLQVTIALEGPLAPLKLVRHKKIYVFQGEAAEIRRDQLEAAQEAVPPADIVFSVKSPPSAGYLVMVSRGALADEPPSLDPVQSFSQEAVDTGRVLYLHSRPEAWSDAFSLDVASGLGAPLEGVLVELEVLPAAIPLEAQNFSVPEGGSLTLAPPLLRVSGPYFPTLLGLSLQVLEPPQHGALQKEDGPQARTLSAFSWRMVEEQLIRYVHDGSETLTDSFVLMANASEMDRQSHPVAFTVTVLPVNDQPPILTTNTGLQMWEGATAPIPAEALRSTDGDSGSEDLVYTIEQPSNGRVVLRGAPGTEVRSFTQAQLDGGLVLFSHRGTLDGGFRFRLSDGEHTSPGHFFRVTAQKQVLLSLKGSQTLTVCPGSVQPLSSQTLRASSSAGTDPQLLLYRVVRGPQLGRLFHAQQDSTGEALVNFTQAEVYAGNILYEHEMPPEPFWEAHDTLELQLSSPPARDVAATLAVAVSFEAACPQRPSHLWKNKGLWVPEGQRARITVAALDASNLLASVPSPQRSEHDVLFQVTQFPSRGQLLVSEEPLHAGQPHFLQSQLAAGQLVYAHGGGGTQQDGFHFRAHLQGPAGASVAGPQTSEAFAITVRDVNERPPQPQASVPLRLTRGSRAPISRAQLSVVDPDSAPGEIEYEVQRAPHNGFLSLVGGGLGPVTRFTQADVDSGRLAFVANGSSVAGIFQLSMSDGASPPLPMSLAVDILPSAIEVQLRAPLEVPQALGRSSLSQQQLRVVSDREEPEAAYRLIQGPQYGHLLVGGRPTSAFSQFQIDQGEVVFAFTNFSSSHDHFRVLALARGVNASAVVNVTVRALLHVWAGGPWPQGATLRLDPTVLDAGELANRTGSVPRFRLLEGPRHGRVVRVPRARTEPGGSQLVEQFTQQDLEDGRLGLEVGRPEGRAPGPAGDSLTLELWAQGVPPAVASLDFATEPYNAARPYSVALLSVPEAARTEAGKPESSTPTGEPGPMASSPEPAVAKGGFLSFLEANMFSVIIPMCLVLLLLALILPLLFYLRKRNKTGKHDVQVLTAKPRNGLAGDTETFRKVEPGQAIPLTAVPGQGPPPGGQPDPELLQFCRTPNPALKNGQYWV
From the text: FIG. 5A to 5B. […] (FIG. 5A) Representative FACS analysis of CSPG4 expression by melanoma cell lines using CSPG4-specific C21 and PE-conjugated anti-human IgG. 119 was used as an isotype control. (FIG. 5B) A panel of melanoma cell lines bound by C21. *Percentage of CSPG4^+ cells. MFI: mean fluorescence intensity. The top section (1520, 836, Colo38, M21, MEL526, MV3, KS-MEL-28, SK-MEL-37, and WM1158) are established melanoma cell lines; The bottom section (MeI-JR(pre), MEL-JR(post), Mel-KD(pre), and Mel-KD(post)) are patient-derived human melanoma cell lines; pre: before vemurafenib (PLX4032) treatment, post: after vemurafenib (PLX4032) treatment.
A fully human mAb, scFc-FcC21 was produced by combining the HMW-MAA (CSPG4)-specific single chain of variable regions of heavy and light chains (scFv) to a Fc portion of IgG1 at the DNA level.

melanoma cells = assay: Prevention/delay of acquired resistance of melanoma cells to vemurafenib in vitro; format: cell-based, human
Procedure: FIG. 13. Prevention/delay of acquired resistance of melanoma cells to vemurafenib. Melanoma cells were seeded in 6-well plates (2.5×10^4 cells/well) containing 2 ml/well RPMI 1640/10% FCS. […] Cells received fresh growth medium every 4 days containing the appropriate treatment concentrations, for 28 days. Cells in randomly selected fields were photographed at different timepoints using a Zeiss Inverted Fluorescence Microscope
In addition, the results presented in FIG. 13 evidences that treatment with C21 delayed resistance to vemurafenib up to 28 days in vitro, at which point the rate of cell growth was unaffected by the presence or absence of vemurafenib (10 μM) in the absence of C21.

[3] = test system: human melanoma BRAF(V600E)/CSPG4^+ xenografts; assay: Survival of mice bearing M21 xenografts, vemurafenib and C21; format: in vivo; conditions: M21 xenograft; vemurafenib 25 mg/kg orally twice a day for 13 days; C21 1 mg/mouse i.v. twice a week for 2 weeks; vs vemurafenib alone or vemurafenib+119
Procedure: FIG. 11. Improved response duration for vemurafenib in vivo. Human melanoma M21^BRAF(V600E)/CSPG4+ cells (2×10^6/mouse) were injected subcutaneously (s.c.) into 20 mice (day 0). By day 7, tumors were measurable, and mice were divided into four groups (5 mice/group) using a stratified randomization strategy. Mice received either vemurafenib, vemurafenib+C21, vemurafenib+119, or were untreated. Vemurafenib was delivered orally (25 mg/kg) twice a day for 13 days, while C21 or 119 were injected i.v. (1 mg/mouse) twice a week for 2 weeks. All mice were monitored for survival.

[4] = test system: BRAF^V600E and BRAF^WT melanoma cell; assay: MTT growth inhibition of melanoma cell lines by C21; format: cell-based, human; conditions: BRAF^V600E and BRAF^WT cells, 3, 5 days
Procedure: FIG. 7. […] The indicated cells were seeded in triplicate in 96-well plates (2.5×10^3/well) and treated for 3, 5 days with C21 and 119 in RPMI 1640/1% FCS. Living cells were detected using MTT assays. The results are expressed as percent inhibition of cell growth, with untreated cells representing 100%. Mean values±SD were calculated from two independent experiments.

EGFR and PDGFRα = assay: Activation of EGFR and PDGFRα in melanoma cells after C21; format: cell-based, human; conditions: acquired resistance to BRAF inhibitor
[5] = test system: human melanocytic lesions; assay: Immunohistochemical staining of frozen sections of human melanocytic lesions with C21; format: binding; conditions: benign pigmented nevus, primary melanoma, metastatic melanoma
From the text: FIG. 6A-6F. Digital images of immunohistochemical staining of frozen sections of human melanocytic lesions with C21.

Sequence of V600E mutated BRAF (P15056 whole entry V600E): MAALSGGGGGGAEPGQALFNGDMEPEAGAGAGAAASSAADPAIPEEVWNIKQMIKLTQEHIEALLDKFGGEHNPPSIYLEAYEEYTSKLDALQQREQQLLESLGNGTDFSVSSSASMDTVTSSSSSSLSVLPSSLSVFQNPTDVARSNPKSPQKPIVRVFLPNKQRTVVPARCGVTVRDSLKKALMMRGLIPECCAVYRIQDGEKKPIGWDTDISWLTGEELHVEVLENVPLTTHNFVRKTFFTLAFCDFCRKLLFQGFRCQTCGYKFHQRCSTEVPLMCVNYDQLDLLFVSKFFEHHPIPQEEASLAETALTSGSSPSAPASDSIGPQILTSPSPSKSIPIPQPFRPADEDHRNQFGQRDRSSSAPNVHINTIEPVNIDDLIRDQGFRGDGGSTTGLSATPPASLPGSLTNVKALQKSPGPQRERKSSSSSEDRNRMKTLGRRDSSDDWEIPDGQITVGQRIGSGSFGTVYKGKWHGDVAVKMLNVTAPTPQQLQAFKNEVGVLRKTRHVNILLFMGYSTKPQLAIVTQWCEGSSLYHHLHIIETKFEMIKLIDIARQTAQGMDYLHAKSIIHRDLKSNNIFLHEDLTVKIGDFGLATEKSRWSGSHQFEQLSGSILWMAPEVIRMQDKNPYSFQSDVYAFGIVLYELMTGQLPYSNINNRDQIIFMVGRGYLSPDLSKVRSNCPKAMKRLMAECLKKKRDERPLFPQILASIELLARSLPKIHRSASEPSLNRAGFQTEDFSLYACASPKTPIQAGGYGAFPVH

Molecule: CCCS(=O)(=O)Nc1ccc(F)c(C(=O)c2c[nH]c3ncc(-c4ccc(Cl)cc4)cc23)c1F [vemurafenib, Vemurafenib]
- response rate (V600E mutated BRAF; 32 BRAF mutated advanced melanoma patients, phase II study (Flaherty et al 2010)): 70%
- tumor regression and overall survival (V600E mutated BRAF; Phase I clinical trials, advanced melanoma patients with the V600E BRAF mutation): effective in promoting tumor regression and increasing overall survival
- median duration of response (V600E mutated BRAF; melanoma patients treated with BRAF selective inhibitor): ~8 months
- cell growth ([1]; BRAF^WT MV3 cells, vemurafenib 500 nM): did not affect

B1: C21: fully human mAb: HMW-MAA (CSPG4)-specific scFv combined to a Fc portion of IgG1; SEQ ID NOs: 3 and 4 (antibody, listed as Homo sapiens, V domains shown)
VH: QVQLVQSGAEVKKPGSSVKVSCKASGGTFSSYAISWVRQAPGQGLEWMGGIIPIFGTANYAQKFQGRVTITADESTSTAYMELSSLRSDDTAVYYCARALDPITFDSWGQGTLVTVSR
VL: SELTQDPAVSVALGQTVRITCQGDSLRSYYASWYQQKPGQAPVLVIYGKNNRPSGIPDRFSGSSSGNTASLTITGAQAEDEADYYCNSRDSSGNHVVFGGGTKLTVLGRS
- IHC Result ([2]; Cerebellum): negative
- IHC Result ([2]; Cerebrum): negative
- IHC Result ([2]; Colon): negative
- IHC Result ([2]; Esophagus): negative
- recognition of a panel of normal human organ tissues ([2]; FIG. 6, Table 2): not a panel of normal human organ tissues
- IHC Result ([2]; Heart): negative
- IHC Result ([2]; Kidney): negative
- IHC Result ([2]; Liver): negative
- IHC Result ([2]; Lung): negative
- IHC Result ([2]; Lymph node): negative
- IHC Result ([2]; Ovary): negative
- IHC Result ([2]; Pancreas): negative
- IHC Result ([2]; Peripheral nerve): negative
- IHC Result ([2]; Pituitary gland): negative
- IHC Result ([2]; Placenta): negative
- IHC Result ([2]; Prostate): negative
- IHC Result ([2]; Salivary gland): negative
- IHC Result ([2]; Skeletal muscle): negative
- IHC Result ([2]; Skin): negative
- IHC Result ([2]; Small intestine): negative
- IHC Result ([2]; Smooth muscle): negative
- IHC Result ([2]; Spinal cord): negative
- IHC Result ([2]; Spleen): negative
- IHC Result ([2]; Stomach): negative
- IHC Result ([2]; Testis): negative
- IHC Result ([2]; Thymus): negative
- IHC Result ([2]; Thyroid gland): negative
- IHC Result ([2]; Ureter): negative
- IHC Result ([2]; Uterine cervix): negative
- reactivity with human melanoma cell lines (CSPG4): Broad reactivity
- reactivity with human melanoma cell lines (CSPG4; listed as scFv-FcC21 (C21)): able to recognize
- cell growth ([1]; 1520 cells negative for CSPG4, C21 0.1 mg/mL): did not affect
- delay of resistance to vemurafenib in vitro (melanoma cells; C21 0.1 mg/mL with vemurafenib increasing 500 to 10,000 nM): up to 28 days
- onset of acquired resistance to vemurafenib (melanoma cells; melanoma cell line 1520, BRAF^V600E positive, CSPG4 negative): did not delay
- survival of mice [3]: prolonging the survival
- inhibition of melanoma cell growth in vitro [4]: Growth inhibition; also recorded: inhibited
- activation of EGFR and PDGFRα (EGFR and PDGFRα): down-regulating activation
- IHC staining of melanocytic lesions [5]: homogeneous cytoplasmic and cytoplasmic membrane staining
